Laboratory results as given in article PMC11466669 (The Journal of Biological Chemistry, 2024).
Substitutions are numbered along the chain they refer to. Numbers in names are those of the source.

Legend:
[1] = target: T1, MsRuvC WT (Mycobacterium smegmatis mc2 155) (UniProt A0QWH4); assay: SPR
T1 sequence: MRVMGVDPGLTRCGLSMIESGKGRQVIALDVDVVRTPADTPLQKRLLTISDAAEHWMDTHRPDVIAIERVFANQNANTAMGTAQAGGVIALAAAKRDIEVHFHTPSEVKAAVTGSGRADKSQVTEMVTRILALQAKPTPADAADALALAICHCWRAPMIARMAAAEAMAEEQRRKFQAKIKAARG

MsRuvC-E68A = target: T2, MsRuvC-E68A (Mycobacterium smegmatis mc2 155, UniProt A0QWH4 1-185, E68A); assay: MST
T2 sequence: T1 sequence with E68A

MsRuvC-D7A = target: T3, MsRuvC-D7A (Mycobacterium smegmatis mc2 155, UniProt A0QWH4 1-185, D7A); assay: MST
T3 sequence: T1 sequence with D7A

MsRuvC WT = target: T4, MsRuvC WT (Mycobacterium smegmatis mc2 155, UniProt A0QWH4 1-185); assay: MST
T4 sequence: T1 sequence

SEC = target: the molecule itself; assay: SEC

3'-flap structure (SPR)
Kd [1]: 296 nM

5'-flap structure
Kd [1]: 410 nM

Replication fork
Kd [1]: 203 nM

Splayed-arm duplex
Kd [1]: 480 nM

dsDNA with 3'-ssDNA overhang
Kd [1]: 263 nM

dsDNA with 5'-ssDNA overhang
Kd [1]: 201 nM

B1: Mobile HJ (MST) (structured_DNA)
DNA 1: GACGCTGCCGAATTCTACCAGTGCCTTGCTAGGACATCTTTGCCCACCTGCAGGTTCACCC
DNA 2: TGGGTGAACCTGCAGGTGGGCAAAGATGTCCTAGCAATGTAATCGTCAAGCTTTATGCCGTT
DNA 3: CAACGGCATAAAGCTTGACGATTACATTGCTAGGACATGCTGTCTAGAGGATCCGACTATCGA
DNA 4: ATCGATAGTCGGATCCTCTAGACAGCATGTCCTAGCAAGGCACTGGTAGAATTCGGCAGCGT
Kd (MsRuvC-E68A): 300 ± 110 nM | Kd (MsRuvC-D7A): 650 ± 170 nM | Kd (MsRuvC WT): 580 ± 270 nM

B2: Mycobacterium smegmatis RuvC (enzyme)
chain: T1 sequence
stoichiometry N (SEC): 2

B3: MsRuvC-E68A (enzyme)
chain: T1 sequence with E68A
stoichiometry N (SEC): 2

B4: MsRuvC-D7A (enzyme)
chain: T1 sequence with D7A
stoichiometry N (SEC): 2
